From publication PMC7337906

Molecular target: T1, Tof1(613-728) minimal;Csm3(48-157) internal_change (Chaetomium thermophilum;Chaetomium thermophilum) (UniProt G0S825+Q2H3R6)
T1 sequence 1: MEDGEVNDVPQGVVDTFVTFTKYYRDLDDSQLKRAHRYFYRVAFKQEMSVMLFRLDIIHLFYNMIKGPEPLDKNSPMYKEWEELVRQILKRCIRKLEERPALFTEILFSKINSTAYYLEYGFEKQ
T1 sequence 2: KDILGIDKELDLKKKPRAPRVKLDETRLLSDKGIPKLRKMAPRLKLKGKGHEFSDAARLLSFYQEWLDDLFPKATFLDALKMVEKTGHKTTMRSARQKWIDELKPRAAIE
Assay: EMSA
Conditions: HBS-200 (20 mM HEPES pH 7.5, 200 mM NaCl, 1 mM TCEP) + 10% glycerol, 50 nM DNA, 30 min on ice; 6% polyacrylamide tris-glycine gel

In the case of “GTAGTTTGTACTGGTGACGA (double strand) [dsDNA 20 bp]”, the binding signal (fold weaker than P1+P2) is reported as 2.
